Measurements taken from patent US8143372B2, “Synthetic regulators of ferritin protein nanocage pores and methods of use thereof” (Children's Hospital & Research Center Oakland, priority 2007, dated 2012).
No end group written: not given here.

Molecular target: T1, recombinant, frog ferritin H protein nanocages (wild type) (Aquarana catesbeiana, UniProt P07229)
T1 construct: made in house
T1 sequence (P07229 1-176): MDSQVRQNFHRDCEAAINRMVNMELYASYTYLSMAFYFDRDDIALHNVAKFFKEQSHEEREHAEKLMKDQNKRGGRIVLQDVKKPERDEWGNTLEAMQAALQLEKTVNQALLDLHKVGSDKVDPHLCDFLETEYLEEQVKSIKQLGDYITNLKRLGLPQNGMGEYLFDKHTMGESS
Assay: Ferritin demineralization: formation of Fe2+-bipyridyl after adding NADH/FMN
Type: biochemical
Conditions: for Initial rate of Fe^2+ bipyridyl formation, pH = 7.0: 2.5 mM FMN, 2.5 mM NADH, 2.5 mM bipyridyl, absorbance 522 nm
From the text: The effect of the test agent on demineralization (e.g., on release of iron from ferritin) is generally carried out by contacting the test agent with ferritin in the presence of a reductant and an iron chelating agent such as bipyridyl or desferrioxamine. A suitable reductant comprises nicotinamide adenine dinucleotide reduced form (NADH) and flavin mononucleotide (FMN). The reductant reduces Fe(III) to Fe(II); and the iron chelating agent forms a complex with the Fe(II). Iron release from ferritin can be measured using any convenient method, including methods known in the art. The following is a non-limiting example of a suitable method. In this example, iron release from ferritin is measured by the formation of Fe(II)-bipyridyl. Iron release can be initiated by the addition of 2.5 mM bipyridyl, 2.5 mM FMN, and 2.5 mM NADH to ferritin in 0.1 M MOPS (pH 7.0) and 0.2 M NaCl. Formation of Fe(II)-bipyridyl is detected by measuring absorbance at 522 nm. See, e.g. Liu et al. (2003) Proc. Natl. Acad. Sci. USA 100:3653; and Takagi et al. (1998) J. Biol. Chem. 273:18685. Desferrioxamine can also be used as an iron chelator. See, e.g., Breuer et al. (2001) Blood 97:792.
The strategy used to identify molecules that would modulate ferritin protein nanocage pore function had two components: (i) searching a combinatorial peptide library for ferritin binding peptides, and (ii) analyzing the effect of reductants on the ferritin mineral inside the protein nanocages. Peptides were selected as the molecules of choice for pore alterations because of the selectivity of urea (1 mM) and guanidine (0.1 mM) in pore unfolding, observed previously. Liu and Theil (2003) Proc. Natl. Acad. Sci. U.S.A. 100:3653. Changes in ferritin protein nanocage pore gating can be analyzed as changes in the rate of ferritin iron demineralization, measured as formation of colored Fe chelates, when reductant (NADH/FMN) is added. Jones et al. (1978) Biochemistry 17:4011.
The peptides were mixed with wild type ferritin; demineralization was initiated by addition of NADH/FMN, and the appearance of Fe^2+-bipyridyl measured (FIG. 2). Three of the peptides (2, 3, and 5) had no effect on rates of formation of Fe^2+-bipyridyl, compared to wild type ferritin H protein nanocages, while Peptide 4 (Group B, eluted with ferritin H protein nanocages, after elution with ferritin H-L134P protein nanocages) decreased the rate 63%. Peptide 4 has 3 His and 1 Asp and could bind to charged residues around the pore. The peptide interaction with ferritin protein nanocage could interfere with unfolding and/or reductant access to the ferric mineral, or might induce conformational changes at the pore or elsewhere.
FIG. 2. Effect of binding peptides on removal of iron from the ferritin mineral. Demineralization of ferritin (recombinant, frog ferritin H protein nanocages; protein: 2.06 μM; Fe: 0.99 mM, MOPS: 100 mM, NaCl: 100 mM, pH 7.0) was initiated with reductant (final concentration: 2.5 mM FMN, 2.5 mM NADH), with bipyridyl (2.5 mM); formation of Fe^2+-bipyridyl was monitored at 522 nm. Initial reaction rates were calculated as described previously (Liu et al. (2003) Proc. Natl. Acad. Sci. USA 100:3653). Ferritin binding peptides, identified in a combinatorial, heptapeptide, phage-display library (1.3×10^9 members, New England Biolabs), were mixed with mineralized ferritin protein nanocages for one hour before initiating demineralization. Peptide 2 (Group A, eluted with H-L134P ferritin protein nanocage) and Peptides 3 and 5 (Group B, eluted with wild type ferritin protein nanocage), had no effect. The data are averages from triplicates in 2-5 independent experiments with two different protein preparations; the error is the standard deviation. […]

[1] = compared to wild type ferritin H protein nanocages without peptide

Substance | Effect on rates of formation of Fe^2+-bipyridyl [1] | Initial rate of Fe^2+ bipyridyl formation, pH = 7.0 (H-wt ferritin + peptide) | further results
GDWYLGD (SEQ ID NO:5) (GDWYLGDGG; not fully specified (N-terminus)) [Peptide 3, heptapeptide from the phage display library, synthesized as an undecapeptide with HS at the N-terminus and GG at the C-terminus] | no effect |  | 
HHALGGS (SEQ ID NO:6) (HHALGGSGG; not fully specified (N-terminus)) [Peptide 5, heptapeptide from the phage display library, synthesized as an undecapeptide with HS at the N-terminus and GG at the C-terminus] | no effect |  | 
HSHHALDGSGG (SEQ ID NO:2) [Peptide 4] |  | 0.41 ± 0.05 (mMol) × 10^3S^−1 | Decrease of the rate of formation of Fe^2+-bipyridyl [1]: 63%
HSNTYYFPKGG (SEQ ID NO:7) [Peptide 1] |  | 6.80 ± 0.37 (mMol) × 10^3S^−1 | Rate Change with Temperature (Arrhenius equation) E‡ (Table 1, H-wt ferritin + peptide): 19.1 ± 0.621 kcal/mol; E‡ in the Arrhenius plot (wild type ferritin complexed with peptide, FIG. 2B): 20.8 kcal/mol
SHTSPSI (SEQ ID NO:4) (SHTSPSIGG; not fully specified (N-terminus)) [Peptide 2, heptapeptide from the phage display library, synthesized as an undecapeptide with HS at the N-terminus and GG at the C-terminus] | no effect |  | 
